Among the data in patent publication US20050074401A1 are Immunoreactivity and Immunoreactivity (I), % of the value before i.v. injection values, retold here.

The target of test [1] is recombinant ED-B domain of fibronectin, conjugated to Sepharose (UniProt P02751). Nature of the test: immunoreactivity of the labelled product (percent bound to ED-B Sepharose column, assay as in P-0168).
Test [2] shares this target. The experiment in a line: ED-B Sepharose column on plasma 6 h after i.v. injection of 125I-antibody, normalised to value before injection.
Test [3] shares this target. The experiment in a line: ED-B Sepharose column on plasma 48 h after i.v. injection of 125I-antibody, normalised to value before injection.
Test [4] has the same target. The experiment in a line: ED-B Sepharose column on plasma 144 h after i.v. injection of 125I-antibody, normalised to value before injection.
The target is the same in test [5]. The experiment in a line: ED-B Sepharose column on plasma 72 h after i.v. injection of 125I-antibody, normalised to value before injection.
For test [6] the target is unchanged. The experiment in a line: ED-B Sepharose column on plasma 3 h after i.v. injection of 125I-antibody, normalised to value before injection.
For test [7] the target is unchanged. Nature of the test: ED-B Sepharose column on plasma 24 h after i.v. injection of 125I-antibody, normalised to value before injection.
Test [8] shares this target. Nature of the test: percent of 125I-labelled antibody bound to ED-B Sepharose column, before injection.
Test [9] has the same target. Nature of the test: immunoreactivity of the labelled product, Iodogen preparation (percent bound to ED-B Sepharose column, assay as in P-0168).
Test [10] shares this target. The experiment in a line: immunoreactivity of the labelled product, chloramine-T preparation (percent bound to ED-B Sepharose column, assay as in P-0168).

Chain of radioiodinated (125I) L19-SIP (VH): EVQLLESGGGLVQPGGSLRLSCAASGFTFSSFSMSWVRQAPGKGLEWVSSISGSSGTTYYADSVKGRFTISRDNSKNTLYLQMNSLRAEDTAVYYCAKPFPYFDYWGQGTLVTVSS
Chain of radioiodinated (125I) L19-SIP (VL): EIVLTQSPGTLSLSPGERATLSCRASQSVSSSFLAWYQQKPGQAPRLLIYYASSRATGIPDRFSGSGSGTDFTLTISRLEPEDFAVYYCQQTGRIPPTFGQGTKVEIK
Chain of radioiodinated (125I) scFv(L19)2 (VH): as the sequence (VH) above
Chain of radioiodinated (125I) scFv(L19)2 (VL): as the sequence (VL) above
Chain of radioiodinated (125I) L19-IgG1 (VH): as the sequence (VH) above
Chain of radioiodinated (125I) L19-IgG1 (VL): as the sequence (VL) above
Chain of recombinant ED-B domain of fibronectin, conjugated to Sepharose (P02751 1266-1356 limits assumed): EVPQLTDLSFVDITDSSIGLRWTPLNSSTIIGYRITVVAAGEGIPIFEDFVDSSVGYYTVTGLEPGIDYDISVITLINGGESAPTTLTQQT
Chain of I-131-L19-SIP (VH): as the sequence (VH) above
Chain of I-131-L19-SIP (VL): as the sequence (VL) above
Chain of Y-88-MX-DTPA-ε-HN(Lys)-L19-SIP (VH): as the sequence (VH) above
Chain of Y-88-MX-DTPA-ε-HN(Lys)-L19-SIP (VL): as the sequence (VL) above
Chain of Tc-99m-L19-SIP (VH): as the sequence (VH) above
Chain of Tc-99m-L19-SIP (VL): as the sequence (VL) above
Chain of Lu-177-DOTA-C-Benzyl-p-NCS-ε-HN(Lys)-L19-SIP (VH): as the sequence (VH) above
Chain of Lu-177-DOTA-C-Benzyl-p-NCS-ε-HN(Lys)-L19-SIP (VL): as the sequence (VL) above
Chain of Re-188-L19-SIP (VH): as the sequence (VH) above
Chain of Re-188-L19-SIP (VL): as the sequence (VL) above
Chain of I-123-L19-SIP (VH): as the sequence (VH) above
Chain of I-123-L19-SIP (VL): as the sequence (VL) above
Chain of Tc-99m-MAG2-ε-HN(Lys)-L19-SIP (VH): as the sequence (VH) above
Chain of Tc-99m-MAG2-ε-HN(Lys)-L19-SIP (VL): as the sequence (VL) above
Chain of I-124-L19-SIP (VH): as the sequence (VH) above
Chain of I-124-L19-SIP (VL): as the sequence (VL) above
Chain of In-111-MX-DTPA-ε-HN(Lys)-L19-SIP (VH): as the sequence (VH) above
Chain of In-111-MX-DTPA-ε-HN(Lys)-L19-SIP (VL): as the sequence (VL) above
Chain of In-111-DOTA-C-Benzyl-p-NCS-ε-HN(Lys)-L19-SIP (VH): as the sequence (VH) above
Chain of In-111-DOTA-C-Benzyl-p-NCS-ε-HN(Lys)-L19-SIP (VL): as the sequence (VL) above
Chain of In-111-MX-DTPA-Maleimide-S(Cys)-L19-SIP-R (R=reduced) (VH): as the sequence (VH) above
Chain of In-111-MX-DTPA-Maleimide-S(Cys)-L19-SIP-R (R=reduced) (VL): as the sequence (VL) above
Chain of (3-(4-hydroxy-3-[131I]iodo-phenyl)-propionate)-L19-SIP (VH): as the sequence (VH) above
Chain of (3-(4-hydroxy-3-[131I]iodo-phenyl)-propionate)-L19-SIP (VL): as the sequence (VL) above

“In-111-MX-DTPA-Maleimide-S(Cys)-L19-SIP-R (R=reduced) (from UniProt P01854 319-426) (antibody)”: the Immunoreactivity in test [1] was 88.5%.
On the same count and under the same terms, the same measure for “Y-88-MX-DTPA-ε-HN(Lys)-L19-SIP (from UniProt P01854 319-426) (antibody)”: 70.5%.
Same read-out and setting: the result for “In-111-MX-DTPA-ε-HN(Lys)-L19-SIP (from UniProt P01854 319-426) (antibody)” reads 77.5%.
On to “Tc-99m-L19-SIP (from UniProt P01854 319-426) (antibody)”, for which the Immunoreactivity in test [1] was determined as 91.4%.
Consider “I-123-L19-SIP (from UniProt P01854 319-426) (antibody)”, for which, in test [1], the Immunoreactivity amounted to 84%.
On to “radioiodinated (125I) L19-SIP (from UniProt P01854 319-426) (antibody)”, for which the Immunoreactivity (I), % of the value before i.v. injection in test [2] came out at 100%; in test [3] it was 95%; in [4], 95%; in test [5], 100%; in test [6], 100%; in [7], 100%. The Immunoreactivity in test [8] was more than 90%.
As for “radioiodinated (125I) L19-IgG1 (from UniProt P01857 1-330) (antibody)”, the Immunoreactivity (I), % of the value before i.v. injection came out at 100% in test [2]; 100% in [3]; 95% in test [4]; 100% in test [5]; 100% in test [6]; 95% in test [7]. For the same substance, in test [8], the Immunoreactivity was more than 90%.
In the case of radioiodinated (125I) scFv(L19)2, the Immunoreactivity (I), % of the value before i.v. injection came out at 32% in test [2]; 14% in test [3]; 4% in [4]; 9% in [5]; 36% in test [6]; 27% in test [7]. Further, the Immunoreactivity in test [8] was more than 90%.
On to “Re-188-L19-SIP (from UniProt P01854 319-426) (antibody)”, for which, in test [1], the Immunoreactivity was 91.7%.
For the substance “I-131-L19-SIP (from UniProt P01854 319-426) (antibody)”, the Immunoreactivity in test [9] was found to be 78%; in test [10], 76%.
As for “In-111-DOTA-C-Benzyl-p-NCS-ε-HN(Lys)-L19-SIP (from UniProt P01854 319-426) (antibody)”, the Immunoreactivity in [1] worked out at 75.1%.
The same measure, in the same setting: the result for “Lu-177-DOTA-C-Benzyl-p-NCS-ε-HN(Lys)-L19-SIP (from UniProt P01854 319-426) (antibody)” reads 73.4%; that for “I-124-L19-SIP (from UniProt P01854 319-426) (antibody)”, 86%; that for “(3-(4-hydroxy-3-[131I]iodo-phenyl)-propionate)-L19-SIP (from UniProt P01854 319-426) (antibody)”, 69%.
As to “Tc-99m-MAG2-ε-HN(Lys)-L19-SIP (from UniProt P01854 319-426) (antibody)”, in test [1], the Immunoreactivity came to 81.1%.
